Reference: patent US6875851

Legend:
Peptide 13 = target: T1, Peptide 13
T1 chain: PNPNQGNFI

Peptide 12 = target: T2, Peptide 12
T2 chain: ARPAK

Peptide 15 = target: T3, Peptide 15
T3 chain: GVPKTHLEL

Peptide 9 = target: T4, Peptide 9
T4 chain: VPPGEDSK

Peptide 8 = target: T5, Peptide 8
T5 chain: VPPGEDSK

Peptide 22 = target: T6, Peptide 22
T6 chain: KIAGYHLEL

Peptide 5 = target: T7, Peptide 5
T7 chain: RPGFSPFR

Peptide 19 = target: T8, Peptide 19
T8 chain: GIRPYEILA

Peptide 16 = target: T9, Peptide 16
T9 chain: KGPPAALTL

Peptide 11 = target: T10, Peptide 11
T10 chain: RGPFPI

Peptide 14 = target: T11, Peptide 14
T11 chain: RHPKYKTEL

Peptide 10 = target: T12, Peptide 10
T12 chain: VEPIPY

Peptide 18 = target: T13, Peptide 18
T13 chain: FLREPVIFL

Peptide 2 = target: T14, Peptide 2
T14 chain: RPPGF

B1: prolyl-tripeptidyl peptidase A from P. gingivalis (protein)
chain: QSPETSGKEFTLEQLMPGGKEFYNFYPEYVVGLQWMGDNYVFIEGDDLVFNKANGKSAQTTRFSAADLNALMPEGCKFQTTDAFPSFRTLDAGRGLVVLFTQGGLVGFDMLARKVTYLFDTNEETASLDFSPVGDRVAYVRNHNLYIARGGKLGEGMSRAIAVTIDGTETLVYGQAVHQREFGIEKGTFWSPKGSCLAFYRMDQSMVKPTPIVDYHPLEAESKPLYYPMAGTPSHHVTVGIYHLATGKTVYLQTGEPKEKFLTNLSWSPDENILYVAEVNRAQNECKVNAYDAETGRFVRTLFVETDKHYVEPLHPLTFLPGSNNQFIWQSRRDGWNHLYLYDTTGRLIRQVTKGEWEVTNFAGFDPKGTRLYFESTEASPLERHFYCIDIKGGKTKDLTPESGMHRTQLSPDGSAIIDIFQSPTVPRKVTVTNIGKGSHTLLEAKNPDTGYAMPEIRTGTIMAADGQTPLYYKLTMPLHFDPAKKYPVIVYVYGGPHAQLVTKTWRSSVGGWDIYMAQKGYAVFTVDSRGSANRGAAFEQVIHRRLGQTEMADQMCGVDFLKSQSWVDADRIGVHGWSYGGFMTTNLMLTHGDVFKVGVAGGPVIDWNRYEIMYGERYFDAPQENPEGYDAANLLKRAGDLKGRLMLIHGAIDPVVVWQHSLLFLDACVKARTYPDYYVYPSHEHNVMGPDRVHLYETITRYFTDHL
Cleavage site (Peptide 13): H-Pro-Asn-Pro-↓-Asn-Gln-Gly-Asn-Phe-Ile | Cleavage site (Peptide 12): H-Ala-Arg-Pro-↓-Ala-D-Lys-amide | Cleavage site (Peptide 15): H-Gly-Val-Pro-↓-Lys-Thr-His-Leu-Glu-Leu | Cleavage site (no ↓ printed: not cleaved) (Peptide 9): Ac-Val-Pro-Pro-Gly-Glu-Asp-Ser-Lys | Cleavage site (Peptide 8): H-Val-Pro-Pro-↓-Gly-Glu-Asp-Ser-Lys | Cleavage site (no ↓ printed: not cleaved) (Peptide 22): H-Lys-Ile-Ala-Gly-Tyr-His-Leu-Glu-Leu | Cleavage site (no ↓ printed: not cleaved) (Peptide 5): H-Arg-Pro-Hyp-Gly-Phe-Ser-Pro-Phe-Arg | Cleavage site (no ↓ printed: not cleaved) (Peptide 19): H-Gly-Ile-Arg-Pro-Tyr-Glu-Ile-Leu-Ala | Cleavage site (no ↓ printed: not cleaved) (Peptide 16): H-Lys-Gly-Pro-Pro-Ala-Ala-Leu-Thr-Leu | Cleavage site (Peptide 11): H-Arg-Gly-Pro-↓-Phe-Pro-Ile | Cleavage site (Peptide 1): H-Arg-Pro-Pro-↓-Gly-Phe-Ser-Pro-Phe-Arg | Cleavage site (Peptide 14): H-Arg-His-Pro-↓-Lys-Tyr-Lys-Thr-Glu-Leu | Cleavage site (Peptide 10): H-Val-Glu-Pro-↓-Ile-Pro-Tyr | Cleavage site (no ↓ printed: not cleaved) (Peptide 18): H-Phe-Leu-Arg-Glu-Pro-Val-Ile-Phe-Leu | Cleavage site (Peptide 2): H-Arg-Pro-Pro-↓-Gly-Phe
